Data reported in patent US20180312587A1 (ADURO BIOTECH HOLDINGS EUROPE B V, published 2018).
One block for each binder: values may come before it.

Legend:
human SIRPα variant 1 = target: T1, human SIRPα variant 1 (human, UniProt P78324 31-504); assay: CELISA, CHO-K1 transfectants, domain exchange study
T1 construct: full length ORF on transfected CHO-K1 or HEK293 cells; entry includes the signal peptide; also called hSIRPαV1; SIRPαV1
From the text: (§1) Based on the fold of SIRPα, the extracellular region can be subdivided into three separate domains: the Ig-like (immunoglobulin-like) V-type (IgV), Ig-like C1-type (IgC1), and Ig-like C2-type (IgC2) domain. The IgV domain is also known as the ligand-binding N-terminal domain of SIRPα (which binds to CD47). The human SIRPαV1/β1 mutants were designed on the basis of the full length hSIRPαV1 sequence (SEQ ID NO: 33) and each individual Ig-like domain was substituted for the equivalent domain of human SIRPβ1 (SEQ ID NO: 37). The cDNAs encoding the constructs, hSIRPα-VβC1αC2α (SEQ ID NO: 55), hSIRPα-VαC1βC2α (SEQ ID NO: 57), and hSIRPα-VaC1αC2β (SEQ ID NO: 59) were synthesized (GeneArt) and subcloned into the pCI-neo vector. Binding of hSIRPα.50A to the exchange mutants was tested using CELISA. To this end, CHO-K1 cells were transiently transfected, using Lipofectamine 2000, with the pCI-neo vectors encoding hSIRPαV1, hSIRPαV2, hSIRPβ1, hSIRPα-VβC1αC2α, hSIRPα-VαC1βC2α, and hSIRPα-VαC1αC2β, respectively. The transfected cells were cultured at 37° C., 5% CO₂ and 95% humidity in medium (DMEM-F12 (Gibco) with 5% New Born Calf serum (Biowest) and Pen/Strep (Gibco)) until confluent. Subsequently, cells were trypsinized and seeded in 96-well flat-bottom tissue culture plates and cultured at 37° C., 5% CO₂ and 95% humidity in culture medium until confluent. Then, culture medium was removed and cells were incubated for 1 hour at 37° C., 5% CO₂ and 95% humidity with hSIRPα.50A and anti-hSIRPα clone SE5A5 antibodies. Next, cells were washed with PBS-T and incubated for 1 hour at 37° C., 5% CO₂ and 95% humidity with goat-anti-mouse IgG-HRP conjugate (Southern Biotech). After that, cells were washed three times with PBS-T and anti-hSIRPα immunoreactivity was visualized with TMB Stabilized Chromogen (Invitrogen). Reactions were stopped with 0.5 M H₂SO₄ and absorbances were read at 450 and 610 nm.

human SIRPα variant 2 = target: T2, human SIRPα variant 2 (human, UniProt P78324 31-504); assay: as above
T2 construct: full length ORF on transfected CHO-K1 cells; also called hSIRPαV2; SIRPαV2
From the text: as §1

hSIRPα-VαC1βC2α = target: T3, hSIRPα-VαC1βC2α (human, UniProt P78324 31-504); assay: as above
T3 construct: domain exchange mutant
T3 chain: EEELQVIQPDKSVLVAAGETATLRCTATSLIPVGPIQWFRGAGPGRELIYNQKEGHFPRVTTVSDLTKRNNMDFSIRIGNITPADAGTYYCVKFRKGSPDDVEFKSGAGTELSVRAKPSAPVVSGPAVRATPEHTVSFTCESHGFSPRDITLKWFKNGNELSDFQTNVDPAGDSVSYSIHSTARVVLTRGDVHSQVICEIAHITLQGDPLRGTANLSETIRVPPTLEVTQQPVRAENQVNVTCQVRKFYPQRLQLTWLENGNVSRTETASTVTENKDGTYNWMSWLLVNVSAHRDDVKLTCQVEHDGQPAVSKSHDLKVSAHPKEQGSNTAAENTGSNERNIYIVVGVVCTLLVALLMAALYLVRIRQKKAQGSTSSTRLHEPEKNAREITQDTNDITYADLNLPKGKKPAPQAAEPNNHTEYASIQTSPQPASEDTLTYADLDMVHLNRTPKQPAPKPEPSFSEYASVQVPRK
From the text: as §1

hSIRPα-VαC1αC2β = target: T4, hSIRPα-VαC1αC2β (human, UniProt P78324 31-504); assay: as above
T4 construct: domain exchange mutant
T4 chain: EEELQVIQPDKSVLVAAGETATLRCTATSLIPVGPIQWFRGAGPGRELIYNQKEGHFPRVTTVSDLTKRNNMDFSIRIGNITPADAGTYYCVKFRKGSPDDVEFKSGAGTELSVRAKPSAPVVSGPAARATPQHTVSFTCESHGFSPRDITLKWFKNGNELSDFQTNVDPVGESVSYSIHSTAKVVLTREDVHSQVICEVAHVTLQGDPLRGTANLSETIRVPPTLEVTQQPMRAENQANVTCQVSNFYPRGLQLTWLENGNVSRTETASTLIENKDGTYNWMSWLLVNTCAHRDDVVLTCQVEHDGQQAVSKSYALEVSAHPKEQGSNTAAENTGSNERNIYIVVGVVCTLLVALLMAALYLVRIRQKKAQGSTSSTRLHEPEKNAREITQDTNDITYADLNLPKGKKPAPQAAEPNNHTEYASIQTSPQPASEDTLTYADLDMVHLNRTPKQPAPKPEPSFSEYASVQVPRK
From the text: as §1

human SIRPβ1 = target: T5, human SIRPβ1 (human, UniProt O00241 30-398); assay: CELISA, CHO-K1 transfectants
T5 construct: also called hSIRPβ1
Method: Reactivity was confirmed using CHO-K1 cells (ATCC CCL-61) that had been transiently transfected, using Lipofectamine 2000, with cDNA encoding the full length open reading frame of hSIRPαV1, hSIRPαV2, hSIRPβ1, hSIRPβL, and hSIRPγ subcloned into the pCI-neo vector (Promega, Madison, Wis.). CHO-K1.hSIRPαV1, CHO-K1.hSIRPαV2, CHO-K1.hSIRPβ1, CHO-K1.hSIRPβL, and CHO-K1.hSIRPγ cells were seeded in culture medium (DMEM-F12 (Gibco) supplemented with 5% New Born Calf Serum (BioWest) and Pen/Strep (Gibco)) in 96-well flat-bottom tissue culture plates and incubated at 37° C., 5% CO₂ and 95% humidity for 24 hours. Subsequently, culture medium was removed and cells were incubated for 1 hour at 37° C., 5% CO₂ and 95% humidity with purified hSIRPα antibodies (used at 10 μg/mL and dilutions thereof). Next, cells were washed with PBS-T and incubated for 1 hour at 37° C., 5% CO₂ and 95% humidity with goat-anti-mouse IgG-HRP (Southern Biotech). Subsequently, cells were washed three times with PBS-T and immunoreactivity against hSIRPαV1, hSIRPαV2, hSIRPβ1, hSIRPβL, and hSIRPγ was visualized with TMB Stabilized Chromogen (Invitrogen). Reactions were stopped with 0.5 M H₂SO₄ and absorbances were read at 450 and 610 nm.
The KWAR23 antibody cross-reacts with all members of the SIRP receptor family tested: it binds to hSIRPαV1, hSIRPαV2, hSIRPβ1, hSIRPβL, and hSIRPγ.

T5 sequence (O00241 30-398 limits assumed): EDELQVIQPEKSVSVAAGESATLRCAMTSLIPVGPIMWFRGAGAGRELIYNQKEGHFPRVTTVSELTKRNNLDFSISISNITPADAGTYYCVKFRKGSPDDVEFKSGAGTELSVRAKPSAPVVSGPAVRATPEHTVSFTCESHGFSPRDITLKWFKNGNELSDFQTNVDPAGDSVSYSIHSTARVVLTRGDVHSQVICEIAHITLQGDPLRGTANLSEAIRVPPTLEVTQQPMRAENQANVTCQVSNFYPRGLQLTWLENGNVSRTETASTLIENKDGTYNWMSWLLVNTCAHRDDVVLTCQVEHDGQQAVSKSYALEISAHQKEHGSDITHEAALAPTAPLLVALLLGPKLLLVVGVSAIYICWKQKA

EC50 (human SIRPα variant 1): 0.321 nM
EC50 (human SIRPα variant 2): 0.215 nM
EC50 (hSIRPα-VαC1βC2α): 0.345 nM
EC50 (hSIRPα-VαC1αC2β): 0.408 nM
B1: hSIRPα.50A (antibody, V domains shown)
VH: QVQLQQSGPELVKPGASVRISCKASGFTFTNYYIHWVKQRPGQGLEWIGWIYPGNVNTKYNEKFKAKATLTADKSSTTAYMQLSSLASEDSAVYFCARPTIIATDFDVWGAGTTVTVSS
VL: DIVMTQSHKFMSTSVGDRVNITCKASQGVGTAVGWYQQKPGQSPRLLIYWASTRHTGVPDRFTGSGSGTDFSLAISNVQSEDLADYFCQQYSTYPFTFGGGTNLEIK
notes: light chain constant domain not tied; also called mouse hSIRPα.50A; hSIRPα.50A.mIgG1

EC50 (human SIRPβ1): 0.14 nM
B2: KWAR23 (antibody, V domains shown)
VH: EVQLQQSGAELVKPGASVKLSCTASGFNIKDYYIHWVQQRTEQGLEWIGRIDPEDGETKYAPKFQDKATITADTSSNTAYLHLSSLTSEDTAVYYCARWGAYWGQGTLVTVSS
VL: QIVLTQSPAIMSASPGEKVTLTCSASSSVSSSYLYWYQQKPGSSPKLWIYSTSNLASGVPARFSGSGSGTSYSLTISSMEAEDAASYFCHQWSSYPRTFGAGTKLELK
